According to patent US20250346685A1 (published 2025):

How the values were obtained:
[1] = target: T1, human CD3 on T cells (Jurkat cells; human peripheral blood CD4+ and CD8+ T-cells) (human, UniProt P07766 23-207); experiment: flow cytometry on human peripheral blood CD4+ T-cells
T1 construct: whole, on cells; also called CD4T; CD4 + T
Experimental: (§1) Fresh human peripheral blood was taken and PBMC was isolated by Ficoll. Paque Plu (GE, 17-1440-03). PBMC was adjusted to 5×10⁵ cells/mL with 4% calf serum (Hyclone, SH30626.06), 100 μL/well was added to a 96-well U-plate, the supernatant was centrifuged off and 100 μL of gradient diluted antibody (with starting concentration of 1800 nM, 3-fold dilution, 10 gradients) was added to each well and incubated for 60 min at 4° C. 50 μL/well of Alexa Fluro647 labeled goat anti-human IgG Fc (1:300 dilution) was added to the secondary antibody, with ice bath for 20 min, and 50 μL/well PI added after washing once, incubated for 5 min, and flow cytometer (BD C6) was used for detection. The control antibody REGN5458 was synthesized and prepared according to US20200024356.

[2] = target: T1, human CD3 on T cells (Jurkat cells; …); experiment: flow cytometry on human peripheral blood CD8+ T-cells
Experimental: as §1

[3] = target: T2, human CD3εγ-Fc heterodimer (human); experiment: SPR (Biacore T200), antigen amine-coupled on CM5 chip, antibody as analyte, 1:1 model
T2 construct: also called human CD3εγ recombinant protein; human CD3εγ protein
T2 chain 1: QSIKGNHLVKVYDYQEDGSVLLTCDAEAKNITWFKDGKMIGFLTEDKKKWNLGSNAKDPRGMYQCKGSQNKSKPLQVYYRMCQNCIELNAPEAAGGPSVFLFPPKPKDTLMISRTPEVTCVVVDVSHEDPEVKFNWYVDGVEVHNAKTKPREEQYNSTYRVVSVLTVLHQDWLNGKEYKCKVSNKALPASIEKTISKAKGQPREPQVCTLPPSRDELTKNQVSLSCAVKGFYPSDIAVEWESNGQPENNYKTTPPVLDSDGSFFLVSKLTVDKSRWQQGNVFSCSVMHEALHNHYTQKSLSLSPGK
T2 chain 2: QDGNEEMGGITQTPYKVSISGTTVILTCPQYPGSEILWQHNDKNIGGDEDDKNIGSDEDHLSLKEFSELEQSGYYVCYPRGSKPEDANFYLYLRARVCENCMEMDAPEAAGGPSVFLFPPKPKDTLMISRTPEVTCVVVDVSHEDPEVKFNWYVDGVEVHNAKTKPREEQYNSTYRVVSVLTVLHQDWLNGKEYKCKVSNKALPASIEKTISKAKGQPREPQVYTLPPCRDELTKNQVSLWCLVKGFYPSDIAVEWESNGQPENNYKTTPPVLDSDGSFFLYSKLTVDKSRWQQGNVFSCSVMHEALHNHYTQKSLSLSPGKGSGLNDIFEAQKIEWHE
Experimental: 10 μg/mL human or cynomolgus monkey BCMA or CD3εγ recombinant antigen was bound to a CM5 chip (GE healthcare) by amino conjugating, while the amount of antigen bound was controlled to approximately 200 RU. After baseline plateau, gradient diluted antibodies (7 gradients of 2-fold dilutions from 10 μg/mL) were flowed through the chip at a flow rate of 30 μL/min for a binding time of 350 seconds and a dissociation time of 600 seconds. Kinetic constants were fitted using Biacore T200 evaluation software with a 1:1 binding model.

B1: BCMA × CD3 κλ004 (bispecific antibody, human IgG4 S228P, kappa, lambda)
light 1: DIVLTQSPASLAVSPGQRATITCRASKSVTTSGYSYIHWYQKKPGQPPKLLIYLASDLEAGVPARFSGSGSGTDFTLTINPVEAEDTANYYCQHSRELPWTFGQGTKVEIKRTVAAPSVFIFPPSDEQLKSGTASVVCLLNNFYPREAKVQWKVDNALQSGNSQESVTEQDSKDSTYSLSSTLTLSKADYEKHKVYACEVTHQGLSSPVTKSFNRGEC
heavy 1: QVQLVQSGSELKKPGASVKVSCKASGYIFTNFGMNWVREAPGQGLEWMGWINTYTGEQIYADGFTGRFVFSLDTSASTAYLQISSLKAEDTAVYFCARGEIYYGYDVGFVYWGQGTLVTVSSASTKGPSVFPLAPCSRSTSESTAALGCLVKDYFPEPVTVSWNSGALTSGVHTFPAVLQSSGLYSLSSVVTVPSSSLGTKTYTCNVDHKPSNTKVDKRVESKYGPPCPPCPAPEFEGGPSVFLFPPKPKDTLMISRTPEVTCVVVDVSQEDPEVQFNWYVDGVEVHNAKTKPREEQFNSTYRVVSVLTVLHQDWLNGKEYKCKVSNKGLASSIEKTISKAKGQPREPQVCTLPPSQEEMTKNQVSLSCAVKGFYPSDIAVEWESNGQPENNYKTTPPVLDSDGSFFLVSKLTVDKSRWQEGNVFSCSVMHEALHNHYTQKSLSLSLGK
light 2: QAVVTQEPSLTVSPGGTVTLTCRSSTGAVTTSNYANWVQEKPGQAPRGLIGGTNKRAPWTPARFSGSLLGGKAALTITGAQAEDEAEYYCVLWYSNLWVFGGGTKLTVLGQPKAAPSVTLFPPSSEELQANKATLVCLISDFYPGAVTVAWKADSSPVKAGVETTTPSKQSNNKYAASSYLSLTPEQWKSHRSYSCQVTHEGSTVEKTVAPTECS
heavy 2: EVQLVESGGGLVQPGGSLRLSCAASGFTFNTYAMNWVRKAPGKGLEWVGRIRSKYNNYATYYADSVKDRFTISRDDSKNSLYLQMNSLKTEDTAVYYCVRHGNFGNSYVSWFAYWGQGTLVTVSSASTKGPSVFPLAPCSRSTSESTAALGCLVKDYFPEPVTVSWNSGALTSGVHTFPAVLQSSGLYSLSSVVTVPSSSLGTKTYTCNVDHKPSNTKVDKRVESKYGPPCPPCPAPEFEGGPSVFLFPPKPKDTLMISRTPEVTCVVVDVSQEDPEVQFNWYVDGVEVHNAKTKPREEQFNSTYRVVSVLTVLHQDWLNGKEYKCKVSNKGLASSIEKTISKAKGQPREPQVYTLPPCQEEMTKNQVSLWCLVKGFYPSDIAVEWESNGQPENNYKTTPPVLDSDGSFFLYSKLTVDKSRWQEGNVFSCSVMHEALHNHYTQKSLSLSLGK
notes: also called BCMA×CD3 κλ bispecific antibody
EC50 [1]: 79 nM
EC50 [2]: 67 nM
Kd [3]: 32 nM
